{"source": "the supplement of paper PMC9732359", "note": "± gives the uncertainty stated by the source.", "data": [{"assay": "protein stability index of a GFP-peptide fusion (yeast GPS) (PSI 1-4); higher = more stable; sorted into four equal gates, so the index is relative within each strain", "conditions": "pdr5∆", "procedure,_shortened": "(§1)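 Tiled 17-residue yeast protein peptides were fused downstream of GFP in a plasmid that also expresses Cherry, and the pooled library was carried in yeast. Mid-log cultures in leucine-free medium were sorted into four equal gates by GFP/Cherry fluorescence ratio, and plasmids from each gate were PCR-amplified and Illumina-sequenced, with reads assigned to strains by barcodes. The protein stability index for each peptide was each gate's read frequency times its gate number, summed.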", "values": [{"sequence": "DKFFTLSAENIEERLVA [SCL1]", "protein stability index": "3.01 ± 0.084"}, {"sequence": "DKFKLNENDLKTYNCLH [SMC1]", "protein stability index": "2.5 ± 0.12"}, {"sequence": "DKIAVAVAGLTADAEIL [PRE9]", "protein stability index": "1.65 ± 0.077"}]}, {"assay": "protein stability index of a GFP-peptide fusion (yeast GPS) (PSI 1-4); higher = more stable; sorted into four equal gates, so the index is relative within each strain", "conditions": "san1∆", "procedure,_shortened": "as §1", "values": [{"sequence": "ASDLVLIVIDVVEGVTF [SNU114]", "protein stability index": "2.07 ± 0.1"}, {"sequence": "ASGCNVTPIIDGIVVKN [ARP7]", "protein stability index": "2.25 ± 0.077"}, {"sequence": "ASISLAIGYPTLPSVGH [RPP0]", "protein stability index": "2.86 ± 0.11"}, {"sequence": "ASKYNCDKSVCRKCYAR [RPL40A]", "protein stability index": "2.87 ± 0.046"}, {"sequence": "ASQPEPTTNEPAKPALS [YJL041W/NSP1]", "protein stability index": "2.92 ± 0.059"}, {"sequence": "ATAALEIILKLCRNPLT [YJL039C/NUP192]", "protein stability index": "1.25 ± 0.098"}, {"sequence": "ATANATANATAELNLPT [SNF11]", "protein stability index": "3.212 ± 0.032"}, {"sequence": "ATGFGAHMANPLLRKVV [PRE4]", "protein stability index": "1.58 ± 0.17"}, {"sequence": "ATLSKLKKKYQIILDRF [SIR3]", "protein stability index": "1.75 ± 0.12"}, {"sequence": "ATMENIQKGKFTLLDFK [SRP54]", "protein stability index": "2.42 ± 0.089"}, {"sequence": "ATSTKVSVEGVNVEKFN [RPL6A]", "protein stability index": "3.31 ± 0.059"}, {"sequence": "ATVEECVKLTVRSLLEV [PRE6]", "protein stability index": "1.88 ± 0.12"}, {"sequence": "ATVLSRKILKKTFKNPK [RPN5]", "protein stability index": "2.55 ± 0.057"}, {"sequence": "AVAEAYNNRSLLDFNTA [RPN6]", "protein stability index": "3.11 ± 0.066"}, {"sequence": "AVGAHSDLLKVLKSKKL [RPL4A]", "protein stability index": "2.61 ± 0.16"}, {"sequence": "AVHNGDRKHVAALRTVK [RPL9B]", "protein stability index": "2.36 ± 0.061"}, {"sequence": "AVHSIIALSRRFLLNGR [YDL116W/NUP84]", "protein stability index": "2.06 ± 0.14"}, {"sequence": "AVLNVSPVYDVDPRIIN [NUT1]", "protein stability index": "1.82 ± 0.091"}, {"sequence": "AVNLLNCPHSDSTQLLE [SSN2]", "protein stability index": "3.51 ± 0.15"}, {"sequence": "CCYFIEWKSNHKKKRSN [SRB8]", "protein stability index": "2.1 ± 0.073"}, {"sequence": "CDLDFPLRENTNVLDVK [YDL116W/NUP84]", "protein stability index": "2.36 ± 0.077"}, {"sequence": "CDQTKSVPLMINAKNIA [RRP43]", "protein stability index": "1.53 ± 0.11"}, {"sequence": "CFVHRYKDVSDLIRSES [IRR1]", "protein stability index": "2.89 ± 0.056"}, {"sequence": "CIVDFTNPKLKSEFDDL [YMR129W/POM152]", "protein stability index": "1.82 ± 0.13"}, {"sequence": "CKKNTKKCLKLAYENKI [POP4]", "protein stability index": "2.87 ± 0.057"}, {"sequence": "CKLTLDINVELFPVAAQ [RPB8]", "protein stability index": "2.43 ± 0.078"}, {"sequence": "CKQVHDKLTSIQDTLRT [MED7]", "protein stability index": "2.67 ± 0.044"}, {"sequence": "CNAQPITRSVMRFNIEI [BRR2]", "protein stability index": "2.77 ± 0.058"}, {"sequence": "CNSLHIPQDFENEVSDI [ESC2]", "protein stability index": "2.93 ± 0.088"}, {"sequence": "CPLSQQFCGIKERNSLK [BRR2]", "protein stability index": "2.71 ± 0.094"}, {"sequence": "CPNSTGAELRSVCTEAG [RPT1]", "protein stability index": "1.65 ± 0.098"}, {"sequence": "CQEEVSTIEKDMKEYDS [SMC2]", "protein stability index": "3.42 ± 0.081"}, {"sequence": "CQYMVACVPLLPPPEDV [RPN1]", "protein stability index": "2.65 ± 0.048"}, {"sequence": "CRGELKADIGKPGRMPF [CDC53]", "protein stability index": "2.91 ± 0.085"}, {"sequence": "CRKLSFSDKVNALWILV [ITC1]", "protein stability index": "1.5 ± 0.1"}, {"sequence": "CYQFAEYLFKPQLISDK [ARP7]", "protein stability index": "2.2 ± 0.064"}, {"sequence": "DAEVAQFLEQGLSIHPT [SRP68]", "protein stability index": "2.76 ± 0.073"}, {"sequence": "DAGSNQYYVTQHDKMVD [SWI1]", "protein stability index": "2.95 ± 0.068"}, {"sequence": "DAHKAEQEDIIEKTESV [SWI3]", "protein stability index": "3.38 ± 0.046"}, {"sequence": "DAISQVINIAKAHPNFP [FAS1]", "protein stability index": "2.03 ± 0.26"}, {"sequence": "DAIYRELTKNPNSNVEL [SMC1]", "protein stability index": "3.33 ± 0.088"}, {"sequence": "DAKKCIAACTGVPDDKW [FAS1]", "protein stability index": "2.16 ± 0.11"}, {"sequence": "DAKSSAYSSRFQTPFRR [RPL5]", "protein stability index": "2.78 ± 0.054"}, {"sequence": "DAMIAQRSKKIQPTAKV [DIS3]", "protein stability index": "1.59 ± 0.067"}, {"sequence": "DARSSRNFSLAIIDKNT [PRE4]", "protein stability index": "2.98 ± 0.05"}, {"sequence": "DATTWRYSMSEQFPFYL [IRR1]", "protein stability index": "3.06 ± 0.063"}, {"sequence": "DATYDSALELVGQLNKV [RPN6]", "protein stability index": "3.27 ± 0.21"}, {"sequence": "DCRMGNFYIQYDPKDGL [AAR2]", "protein stability index": "2.31 ± 0.08"}, {"sequence": "DDAMEINGEDPANNHQL [SMX2]", "protein stability index": "3.3 ± 0.047"}, {"sequence": "DDDIEKQEQEEKIKSKK [YCG1]", "protein stability index": "3.01 ± 0.052"}, {"sequence": "DDDVTPSTKVASSAVMN [YLR335W/NUP2]", "protein stability index": "3.3 ± 0.065"}, {"sequence": "DDEGSFAQENSELAVAT [SRB6]", "protein stability index": "3.08 ± 0.054"}, {"sequence": "DDESPRFVMPNQLLAAL [RRP6]", "protein stability index": "1.88 ± 0.069"}, {"sequence": "DDFEVNVASLVRVQFQF [GRR1]", "protein stability index": "1.78 ± 0.18"}, {"sequence": "DDFQNFFDPKPFDQNLD [SWI1]", "protein stability index": "2.13 ± 0.1"}, {"sequence": "DDKLAYIRVNHADKDTF [POP8]", "protein stability index": "2.72 ± 0.063"}, {"sequence": "DDLKKDHIAIDWEDEEK [DSN1]", "protein stability index": "3.07 ± 0.065"}, {"sequence": "DDLQSSVIPEVDREAML [YCG1]", "protein stability index": "2.48 ± 0.12"}, {"sequence": "DDPVPTPPAIEHKPVSP [SSN2]", "protein stability index": "2.72 ± 0.29"}, {"sequence": "DDVLQTIITDCAFLLTK [YJL039C/NUP192]", "protein stability index": "1.79 ± 0.098"}, {"sequence": "DDYVLRIFAIAFTRKQA [RPS1A]", "protein stability index": "1.94 ± 0.027"}, {"sequence": "DEDLHEFQIEDAIWSLV [SRB8]", "protein stability index": "2.88 ± 0.14"}, {"sequence": "DEEENGSSDEDLKSLNV [SSN2]", "protein stability index": "3.35 ± 0.057"}, {"sequence": "DEFPELKEPVEDIIKRT [NUT2]", "protein stability index": "3.31 ± 0.045"}, {"sequence": "DEGTALSRLGLKRYCCR [RPB10]", "protein stability index": "3.53 ± 0.079"}, {"sequence": "DEHHESFELKEEDISDL [RRP6]", "protein stability index": "2.9 ± 0.075"}, {"sequence": "DEIATIQSKRLRNKIAG [RPS17A]", "protein stability index": "3.33 ± 0.066"}, {"sequence": "DEISPELLSKYKEQIIQ [SNU114]", "protein stability index": "2.42 ± 0.079"}, {"sequence": "DEITEDMFEMSDEEENN [SSN2]", "protein stability index": "3.25 ± 0.08"}, {"sequence": "DELEDDTLNETNLKMKR [RRP43]", "protein stability index": "3.26 ± 0.075"}, {"sequence": "DELLSQLDLCKLYFQLF [SRP68]", "protein stability index": "1.46 ± 0.15"}, {"sequence": "DELVLNFENDNENNSNG [REC8]", "protein stability index": "2.64 ± 0.15"}, {"sequence": "DERIEKELNTERQIFLE [CDC53]", "protein stability index": "3.13 ± 0.097"}, {"sequence": "DETYKGVEEVEGEYELT [RPL5]", "protein stability index": "3.16 ± 0.23"}, {"sequence": "DEVYVQNSKFLKVNVTL [YJL039C/NUP192]", "protein stability index": "2.76 ± 0.06"}, {"sequence": "DFAQKEINGDDDEDEDD [PRE10]", "protein stability index": "3.22 ± 0.082"}, {"sequence": "DFIKFDAGKLVYVTGGR [RPS4A]", "protein stability index": "2.41 ± 0.1"}, {"sequence": "DFIQLKQTAAYRTPGSS [SSN2]", "protein stability index": "2.79 ± 0.083"}, {"sequence": "DFNMKLAINAKTITSGL [RPB2]", "protein stability index": "2.76 ± 0.061"}, {"sequence": "DFNQAKHEEIDTKNLYV [RPS10A]", "protein stability index": "3.29 ± 0.078"}, {"sequence": "DFSIRKTCAKSVIQLCG [ECM29]", "protein stability index": "2.05 ± 0.22"}, {"sequence": "DGENDKKEATKPAFSFG [YLR335W/NUP2]", "protein stability index": "2.79 ± 0.041"}, {"sequence": "DGILRLYDALEPSDLRS [YGL100W/SEH1]", "protein stability index": "2.77 ± 0.041"}, {"sequence": "DHRKRKKSKIQLLDIAE [LIN1]", "protein stability index": "3.19 ± 0.17"}, {"sequence": "DHSMILPSGVLSRGDDE [SMC3]", "protein stability index": "2.19 ± 0.12"}, {"sequence": "DICLKLNLDSEQTVEYM [RPN3]", "protein stability index": "2.97 ± 0.24"}, {"sequence": "DIEDALVLNKSSIDRGF [RET1]", "protein stability index": "2.24 ± 0.19"}, {"sequence": "DIGVLEEYARRLAEFKR [SMC4]", "protein stability index": "2.74 ± 0.096"}, {"sequence": "DIICEDSTLILEQLAQH [RPB2]", "protein stability index": "2.57 ± 0.084"}, {"sequence": "DIKANGSIQKGMPHKFY [RPL21A]", "protein stability index": "3.07 ± 0.28"}, {"sequence": "DINPPLVFILAVVGNNM [RRP42]", "protein stability index": "1.96 ± 0.082"}, {"sequence": "DINTIKLQLSFVLQMVG [SRP72]", "protein stability index": "1.32 ± 0.11"}, {"sequence": "DITFFGEALPNKFHKSI [SIR2]", "protein stability index": "2.61 ± 0.082"}, {"sequence": "DIYKSHLDNSKSVFSSA [RPN1]", "protein stability index": "2.67 ± 0.051"}, {"sequence": "DKDRDTRRKRRQGRSNR [SNF5]", "protein stability index": "3.31 ± 0.096"}, {"sequence": "DKEWVFAALSDSYGQGS [SSN2]", "protein stability index": "3.1 ± 0.13"}, {"sequence": "DKFFTLSAENIEERLVA [SCL1]", "protein stability index": "3.06 ± 0.082"}, {"sequence": "DKIAVAVAGLTADAEIL [PRE9]", "protein stability index": "1.25 ± 0.21"}]}, {"assay": "protein stability index of a GFP-peptide fusion (yeast GPS) (PSI 1-4); higher = more stable; sorted into four equal gates, so the index is relative within each strain", "conditions": "ubr1∆", "procedure,_shortened": "as §1", "values": [{"sequence": "ARVLSNYLRQQCNYSSL [PRE5]", "protein stability index": "2.78 ± 0.087"}]}]}
